{
  "source": "the NTF2 design screens of Basanta et al. (2020)",
  "assay": "protease stability score; higher = more stable; yeast display proteolysis, trypsin and chymotrypsin;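 also: relative to predicted unfolded state with 0 unfolded-like and 1 meaning tenfold more protease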",
  "data": [
    {"sequence": "HEERDLAMHVIKRFIDSTVTGNEQDLTKLLDPHVRIEQGEYHDHGWKYAQLMIERFRNVRIELRIHFIRVQGDKVQVDIDWEVHIGDKVISSRLEMYIIKVNGVWLIRYVIFE", "values": [
      {"measurement": "protease stability score", "result": 0.854}
    ]},
    {"sequence": "HEESEDATRFLHQVIHALYTGDEKRFDELLDPRMRLHIGDKQHVGRENVSEFLLHLRIRHVHVHDFRVFDGRLHVDQTLDGEYDGRRREIHFELQITKINGRWFLNHFWIR", "values": [
      {"measurement": "protease stability score", "result": 1.35}
    ]},
    {"sequence": "HEHDQKSNKMSEILMELWKTGNEDWMDKLVDPNARTDIEVGDKRIENVGMEELHKWLFDHHRRIKGIKIIHRTMEVVGDKVTLHLELRFNGVRVEIIIRLIVIDGRVHSQHYEVRTE", "values": [
      {"measurement": "protease stability score", "result": 0.59}
    ]},
    {"sequence": "HEHEEELHRVFKIFLELWTTGDEESMERLLDPNARWVELQGDKELTLIGRENARNRFKEIFDLAGFKYMHLDHEDIQGEKTRFEMTVEYDGRRTRMLLKIVVINGRVKVVKLEER", "values": [
      {"measurement": "protease stability score", "result": 1.32}
    ]},
    {"sequence": "HEHEEELREFLRLWIEDLVTGNEDSLREFADPNMRIEQGDKEHHGREQFLEIMHRLVREARLEIILRRMNIFDGKANIDGELMIRIGDKHIRHHLRIIILKIDGVWLLKSIHVR", "values": [
      {"measurement": "protease stability score", "result": 1.94}
    ]},
    {"sequence": "HEHEEEVRSMTRLFLHAFVTGDWRTIVELIDPNVRTWFNGKDDHGRESLFKNLIRVLEEFGADHVDITIEEMEVQGNKVRVKMIIEVIVGDKDLRLSINQQAYKVDGRWRVKEIIIH", "values": [
      {"measurement": "protease stability score", "result": 0.725}
    ]},
    {"sequence": "HEHEELIRWAVELLEHNTRTGDEETLIRLADPNVRMIFDGRDLVGRDWLLEFEERLGADHVELEFRHVRIIDGRVHVNGIMRHEFDGVRVERRTTIIVKKINGRWNNRTVEFR", "values": [
      {"measurement": "protease stability score", "result": 0.529}
    ]},
    {"sequence": "HEHEELLREYVERLLEIWRTGDEEKFMKNADPNVRIVYGDKDVHGREIWVEHFKRLFEELGFKYIDLRRVELINGVLHVHGNWNVNGRERKTELEFKIIDGRITSVQIRVH", "values": [
      {"measurement": "protease stability score", "result": 1.27}
    ]},
    {"sequence": "HEHEEMSELWLRIFERSVDTGDWNTLIELADPNVRQDYNGREYHGRESFVHTMREDIHRADHIEFHIDRFRVIGDKLDIDGTIIIRINGQTLIYRSHLHILKYDGRWIIKEVRFK", "values": [
      {"measurement": "protease stability score", "result": 1}
    ]},
    {"sequence": "HEHEKWMEELVRRLKHHLRTGDFETWKELADPNAKVQLVVGDKHVESIGREEMEKWFHDHMMRLGIERFEFNIQSIYVQGEKIHLLGRLHFNGQDERAEIILVVVNGRIKQIHFHLH", "values": [
      {"measurement": "protease stability score", "result": 1.2}
    ]},
    {"sequence": "HEHEQQVREIAKKLLHALLTGDEDEIYRLIDPNVRLIILVGDKEIHVHGRELVSEVMHKLFRELGVDHWHSRSELLIGNKFHVDTEQHFNGQTFETQVHILVIDGKVHLLTLQIH", "values": [
      {"measurement": "protease stability score", "result": 1.88}
    ]},
    {"sequence": "HEHKEEVDELISMALESMHTGDEETWYRMADPHVRMDVNGQDIHGREEVSEIYVHWLREAGVKHIKIEDVKVINGRVDLHIFSKVNGRFFEYRLISEKIDGQWHIKSVRIL", "values": [
      {"measurement": "protease stability score", "result": 0.399}
    ]},
    {"sequence": "HEHTKMLLDMHRLWMELWLTGDEHELEKLLDPNVRIIIHVNGVDISIHGRETVRRVLRHEIKRYDHLEINLKRHSAYDGKVESDTEFRVIFDGKRIELDTRIKNIVINGRTKEWIFELE", "values": [
      {"measurement": "protease stability score", "result": 0.619}
    ]},
    {"sequence": "HEIDEWSEEWKHELIHNLRTGDEHRLKELADPHTRIIIDGREIHGMDFALKLIHKRVMEMRHKEFHIRRIDHQGEKIVMDVEVRVNFNGREDSVNFRIISEKFNGRWIIHYITLI", "values": [
      {"measurement": "protease stability score", "result": 1.49}
    ]},
    {"sequence": "HEIEEEVENAVRLISHLLLTGDEETLHDLADPEMRTIVGDKHLHGREMWSEVIRRLGVDVLVIKEIRVQGDWIHSDGVLLVNGQERDAKIHVRKVNGKWVITTFQLK", "values": [
      {"measurement": "protease stability score", "result": 1.8}
    ]},
    {"sequence": "HEIEEIARHINNIWEERSRTGDFRHFTTLLDPHARIDINGVELHGRELWMSRVYHHFQSHGIEYSVHTKHIEVFDGRVHLHGELFFHFNGVDITIRTHHTMRKVDGRWFVEQIIVH", "values": [
      {"measurement": "protease stability score", "result": 0.468}
    ]},
    {"sequence": "HEIHELLKRVVDMLRTLWETGDEETWNSLADPNTKFVIGDKEVVGMEEITRIFLHERERADHMKFEVRRIRTVGDKADSHGHLRLDIGNKHVTHEIDLHVRVINGRIKQVELRIH", "values": [
      {"measurement": "protease stability score", "result": 1.33}
    ]},
    {"sequence": "HEKEHRLHEIMELWLKLVQTGNEEILMELADPHTKLDIGDKHLHGRELTSRFLLHMRIEDLTIKRIDVQGDYAHIDGHVIGVINGRRFISDRHIHLDIYNGKHRRVEVRIE", "values": [
      {"measurement": "protease stability score", "result": 1.01}
    ]},
    {"sequence": "HEKEKLEKDIWRLLVEWLETGNEHEFEKFMDPDARLFEDVDGKELRIHGREIAMEILHHLWRDFGVDHLVLKKASIIDGVVHLDVILDVNGRRIDTRIIFVIINGRIHSTHIHIR", "values": [
      {"measurement": "protease stability score", "result": 1.52}
    ]},
    {"sequence": "HEKKEAYDYMVEILWKAMHTGDEKTLKHLFDPHTKVTQGDFEIHGMEQFSEHLKHARYRRVRVKFEDSHTQGEKVRMHTRLEFEGEIDGKRDTLEFETHQIVTKIDGRWVFESLEIE", "values": [
      {"measurement": "protease stability score", "result": 0.7}
    ]},
    {"sequence": "HELDELTERTVKLFRDSSYTGDEDTLEDLADPNYRFVIDGKILMGREWVTRSLREWRVEDFRIHSVDLQGDKAHVDITVKGKFNGRFRTTRQEMVMMKVDGVWYFHSLTIR", "values": [
      {"measurement": "protease stability score", "result": 0.521}
    ]},
    {"sequence": "HELEEEAKRAADIWFENLLTGDFDSLRKLVDPHVRMNYNGQEYHGWEEVIRFWKEYLDKVKNLQFHRHHVDVQGEKTTIDTRHIINGRSSEVEIRLLVINGRIQSNEVHEN", "values": [
      {"measurement": "protease stability score", "result": 1.14}
    ]},
    {"sequence": "HELEERLEKWFKKFLHNMMTGDEDKLIHLADPHAKFRIDGVESHGRENWSRYVEERHLKLGLENIHVNVHRVHVQGDKIDMTGTLEINGQRVDFHIHIEVVDGRIKRLIIIIE", "values": [
      {"measurement": "protease stability score", "result": 0.732}
    ]},
    {"sequence": "HELEHELEKFMQWIIEFLETGDEDALSTLLDPNVRYVINGQNLHGRSLLITTLHRLKEEIRVHWKIRDLKIQGDKAHSDGRFTIIVNGRKHSVDSHINVTIVDGRIHRVEIELR", "values": [
      {"measurement": "protease stability score", "result": 1.7}
    ]},
    {"sequence": "HELKEELDEKLEFILRVFRTGNEERWRRLFDPEVRIEVGDKEIHGMDEALHFASHMRVEFKEMNFEDIRIVGEWVTLHIRVRGTIVYNGKKVERSMHIIIIILKIDGKWHIHEFRIH", "values": [
      {"measurement": "protease stability score", "result": 1.44}
    ]},
    {"sequence": "HELLEHVKKIIEMWNKLLHTGDEETLNKLLDPRVRIHVNGRELIGREAVETELREIRFEITYTHVKEVDVVGDKVHVNTLLDGEFRIGNFVIRTRTDARLHLLKVDGKWLLESLHVT", "values": [
      {"measurement": "protease stability score", "result": 1.24}
    ]},
    {"sequence": "HELLEIIHRVAQMIYENLLTGNEDLFEHLADPNRRLLVNGVDLVGWERVVKWEKEMRIHDHRLRDESMTRQGDKAFVHHRTELRGDINGREIHTETKLNIVIRKIDGKWIVERIEVRID", "values": [
      {"measurement": "protease stability score", "result": 0.81}
    ]},
    {"sequence": "HELLKLVEEMARITVKLFMTGDWKTFKHLADPHVREIINGRTVHGMEKVVEHRKEFKEELWIESITIHDVEVQGEKAHLNTKLIGHVNGREVEVEIYVNIEIINGRWNLVEIDIR", "values": [
      {"measurement": "protease stability score", "result": 1.76}
    ]},
    {"sequence": "HELQEEATRFIKEFQEAVRTGDWRLWKKQLDPHVRLDIDGRHYHGRDIVLEFLRELEDKMGIERENVHIEHIDFQGDKVIVHSKEHGIVNGQRFDDKSSSIVLKINGQWTLHSVKIR", "values": [
      {"measurement": "protease stability score", "result": 1.19}
    ]},
    {"sequence": "HELVEEAITMWKEMLVDELTGDEKKTSQNLDPNYKMVIDGQEIHGMEEWSRFLKEIRLHHEDFHVKDARVIDGRVKIDGHIKGTLEINGKRTRTETDVHIILIKINGRWVTHSVHFK", "values": [
      {"measurement": "protease stability score", "result": 1.24}
    ]},
    {"sequence": "HEMEEMEELAFRLIEESIRTGDFTTLEDLFDPDTRIIIGDKDLHGREALRHLRERIDHLKELRVHRRTFIGDWLDMNLHMTGNVNGVEHRRDVRFIIWKINGQWRIHSVYEV", "values": [
      {"measurement": "protease stability score", "result": 1.38}
    ]},
    {"sequence": "HEMKEESEKAVRLMVHLFKTGDEETIYRMADPNARFFFDGRHIHGMDHVFREVLRLEREYGVKHFELRDMELRIFDGRIFLHIDGVEEFNGRRLETHLHFESRKIDGRWHFQSESIVLR", "values": [
      {"measurement": "protease stability score", "result": 0.317}
    ]},
    {"sequence": "HEMQEEAHIATELIIDTFKTGDEKKMRELFDPTPRLHQGDKRFHGREEVVHIISERIHRFGFNHIEVKTVRVQGDFIIVHGEKDVNGQRVEVILHIWKYDGRWEVHRIEIR", "values": [
      {"measurement": "protease stability score", "result": 1.23}
    ]},
    {"sequence": "HENEEAAEHIFELFLDSLRTGDPDVVERLLDPHVKLDINGVEFHGREEAVHILMEEWKRLGIDHFEIKRIELRVYNGVVHIEIDSRTQVNGQKHHTKYRIIVIKINGRWHVNLLYIYIE", "values": [
      {"measurement": "protease stability score", "result": 2.12}
    ]},
    {"sequence": "HENEENETEAIRLFLRVMLTGDEHDLKRMFDPDMKVEIGDKRIVGRERVLEHWLHTAERFGLTNIYLQLDHVRVINGRVDIDFHVRFNGRTERVHLHILKINGKWIVEHLEVR", "values": [
      {"measurement": "protease stability score", "result": 1.36}
    ]},
    {"sequence": "HENEHRMKEFVREVFDLRRTGNWEQLQELFDPNVRIEIGDKRYHGWENLSHFLLHARQDMHIEVTSVEVQGDKIIADGRLEYTLRVGDKDVTYDHRTIIIAHKFNGKWFFTTERIK", "values": [
      {"measurement": "protease stability score", "result": 1.33}
    ]}
  ]
}
